Test results from the supplement of paper PMC9112550, “Optimization of the antimicrobial peptide Bac7 by deep mutational scanning” (BMC Biology, 2022).

Tested on: Escherichia coli TOP10
Test: shrunken log2 fold change of peptide-encoding DNA abundance (4.5 h post-induction vs induction); higher = less antimicrobial activity (less host growth inhibition)
Conditions: time post-induction: 4.5 h; library: site-saturation at positions 5, 18, 19, 20
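Further: peptides expressed intracellularly from a pBAD plasmid library in pooled LB shake-flask culture, induced with 0.3% L-arabinose, DNA abundance read by NGS, three biological replicates, DESeq2 with apeglm shrinkage.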

## RRIRKRPPRLPRPRPRPTPPPRP
  shrunken log2 fold change: 1.25

## RRIRIRPPRLPRPRPRPELMPRP
  shrunken log2 fold change: -0.00872

## RRIRDRPPRLPRPRPRPVCCPRP
  shrunken log2 fold change: 0.967

## RRIRRRPPRLPRPRPRPQSKPRP
  shrunken log2 fold change: -0.0754

## RRIRHRPPRLPRPRPRPAAFPRP
  shrunken log2 fold change: 0.068

## RRIRLRPPRLPRPRPRPTGWPRP
  shrunken log2 fold change: 0.303

## RRIRCRPPRLPRPRPRPCMTPRP
  shrunken log2 fold change: -0.114

## RRIRPRPPRLPRPRPRPSPIPRP
  shrunken log2 fold change: 0.335

## RRIRQRPPRLPRPRPRPSVYPRP
  shrunken log2 fold change: -0.643

## RRIRCRPPRLPRPRPRPFPAPRP
  shrunken log2 fold change: -0.0653

## RRIRYRPPRLPRPRPRPHSVPRP
  shrunken log2 fold change: -0.07

## RRIRFRPPRLPRPRPRPPVRPRP
  shrunken log2 fold change: 0.443

## RRIRGRPPRLPRPRPRPRNSPRP
  shrunken log2 fold change: 0.114

## RRIRCRPPRLPRPRPRPMPRPRP
  shrunken log2 fold change: 0.0702

## RRIRKRPPRLPRPRPRPPHVPRP
  shrunken log2 fold change: 0.498

## RRIRQRPPRLPRPRPRPVEYPRP
  shrunken log2 fold change: -0.434

## RRIRYRPPRLPRPRPRPFFEPRP
  shrunken log2 fold change: -0.482

## RRIRERPPRLPRPRPRPHEIPRP
  shrunken log2 fold change: -0.0168

## RRIRERPPRLPRPRPRPKCEPRP
  shrunken log2 fold change: 0.0279

## RRIRWRPPRLPRPRPRPFFFPRP
  shrunken log2 fold change: 0.253

## RRIRSRPPRLPRPRPRPVVNPRP
  shrunken log2 fold change: 0.0966

## RRIRDRPPRLPRPRPRPCMCPRP
  shrunken log2 fold change: -0.0426

## RRIRKRPPRLPRPRPRPAHDPRP
  shrunken log2 fold change: 0.536

## RRIRVRPPRLPRPRPRPIQEPRP
  shrunken log2 fold change: -0.169

## RRIRLRPPRLPRPRPRPKCDPRP
  shrunken log2 fold change: -0.461

## RRIRLRPPRLPRPRPRPWHNPRP
  shrunken log2 fold change: -0.00136

## RRIRIRPPRLPRPRPRPDPGPRP
  shrunken log2 fold change: -0.0404

## RRIRTRPPRLPRPRPRPMYHPRP
  shrunken log2 fold change: -0.0615

## RRIRTRPPRLPRPRPRPAQEPRP
  shrunken log2 fold change: -0.00523

## RRIRARPPRLPRPRPRPSQKPRP
  shrunken log2 fold change: 0.106

## RRIRTRPPRLPRPRPRPTTVPRP
  shrunken log2 fold change: -0.271

## RRIRVRPPRLPRPRPRPECMPRP
  shrunken log2 fold change: 0.283

## RRIRCRPPRLPRPRPRPAIQPRP
  shrunken log2 fold change: -0.0767

## RRIRGRPPRLPRPRPRPHAVPRP
  shrunken log2 fold change: 0.657

## RRIRERPPRLPRPRPRPVPMPRP
  shrunken log2 fold change: -0.041

## RRIRFRPPRLPRPRPRPWAYPRP
  shrunken log2 fold change: -0.201

## RRIRDRPPRLPRPRPRPLVPPRP
  shrunken log2 fold change: 0.249

## RRIRQRPPRLPRPRPRPSYCPRP
  shrunken log2 fold change: 0.103

## RRIRIRPPRLPRPRPRPKPNPRP
  shrunken log2 fold change: -0.105

## RRIRYRPPRLPRPRPRPNLNPRP
  shrunken log2 fold change: -0.393

## RRIRKRPPRLPRPRPRPVMMPRP
  shrunken log2 fold change: 0.155

## RRIRFRPPRLPRPRPRPPGEPRP
  shrunken log2 fold change: 0.421

## RRIRERPPRLPRPRPRPKMQPRP
  shrunken log2 fold change: -0.0537

## RRIRVRPPRLPRPRPRPHWWPRP
  shrunken log2 fold change: 0.355

## RRIRHRPPRLPRPRPRPWKMPRP
  shrunken log2 fold change: 0.00115

## RRIRTRPPRLPRPRPRPINDPRP
  shrunken log2 fold change: -0.293

## RRIRSRPPRLPRPRPRPNWRPRP
  shrunken log2 fold change: 0.266

## RRIRRRPPRLPRPRPRPKSMPRP
  shrunken log2 fold change: 0.0108

## RRIRSRPPRLPRPRPRPVDAPRP
  shrunken log2 fold change: 0.0786

## RRIRPRPPRLPRPRPRPFISPRP
  shrunken log2 fold change: -0.706

## RRIRRRPPRLPRPRPRPASQPRP
  shrunken log2 fold change: 0.0789

## RRIRPRPPRLPRPRPRPGFHPRP
  shrunken log2 fold change: -0.0164

## RRIRWRPPRLPRPRPRPMCTPRP
  shrunken log2 fold change: 0.356

## RRIRQRPPRLPRPRPRPWYSPRP
  shrunken log2 fold change: -0.0193

## RRIRARPPRLPRPRPRPHIAPRP
  shrunken log2 fold change: -0.111

## RRIRRRPPRLPRPRPRPGIVPRP
  shrunken log2 fold change: -0.0478

## RRIRPRPPRLPRPRPRPLMVPRP
  shrunken log2 fold change: -0.0973

## RRIRERPPRLPRPRPRPDKDPRP
  shrunken log2 fold change: -0.433

## RRIRSRPPRLPRPRPRPQRMPRP
  shrunken log2 fold change: -0.133

## RRIRPRPPRLPRPRPRPSTTPRP
  shrunken log2 fold change: -0.326

## RRIRERPPRLPRPRPRPIGCPRP
  shrunken log2 fold change: -0.00631

## RRIRLRPPRLPRPRPRPRAFPRP
  shrunken log2 fold change: 0.25

## RRIRIRPPRLPRPRPRPSSLPRP
  shrunken log2 fold change: -0.713

## RRIRNRPPRLPRPRPRPQVEPRP
  shrunken log2 fold change: 0.0172

## RRIRFRPPRLPRPRPRPQKLPRP
  shrunken log2 fold change: -0.211

## RRIRMRPPRLPRPRPRPSSWPRP
  shrunken log2 fold change: 0.477

## RRIRCRPPRLPRPRPRPTHYPRP
  shrunken log2 fold change: 0.513

## RRIRDRPPRLPRPRPRPSANPRP
  shrunken log2 fold change: 0.119

## RRIRDRPPRLPRPRPRPFLGPRP
  shrunken log2 fold change: -0.0161

## RRIRARPPRLPRPRPRPKGVPRP
  shrunken log2 fold change: 0.15

## RRIRPRPPRLPRPRPRPFQMPRP
  shrunken log2 fold change: -0.0867

## RRIRWRPPRLPRPRPRPLYQPRP
  shrunken log2 fold change: -0.363

## RRIRIRPPRLPRPRPRPGKTPRP
  shrunken log2 fold change: -0.126

## RRIRFRPPRLPRPRPRPHREPRP
  shrunken log2 fold change: -0.0534

## RRIRSRPPRLPRPRPRPWRDPRP
  shrunken log2 fold change: 0.0985

## RRIRHRPPRLPRPRPRPRNAPRP
  shrunken log2 fold change: 0.184

## RRIRWRPPRLPRPRPRPWIGPRP
  shrunken log2 fold change: 0.0176

## RRIRMRPPRLPRPRPRPFERPRP
  shrunken log2 fold change: 0.122

## RRIRVRPPRLPRPRPRPQHSPRP
  shrunken log2 fold change: -0.245

## RRIRYRPPRLPRPRPRPHHVPRP
  shrunken log2 fold change: -0.00992

## RRIRRRPPRLPRPRPRPNGIPRP
  shrunken log2 fold change: -0.0555

## RRIRHRPPRLPRPRPRPQCWPRP
  shrunken log2 fold change: -0.112

## RRIRKRPPRLPRPRPRPFHMPRP
  shrunken log2 fold change: -0.424

## RRIRFRPPRLPRPRPRPAKRPRP
  shrunken log2 fold change: 0.21

## RRIRPRPPRLPRPRPRPMQPPRP
  shrunken log2 fold change: 0.234

## RRIRYRPPRLPRPRPRPNQPPRP
  shrunken log2 fold change: -0.0705

## RRIRNRPPRLPRPRPRPSDKPRP
  shrunken log2 fold change: -0.363

## RRIRRRPPRLPRPRPRPNQCPRP
  shrunken log2 fold change: -0.0957

## RRIRKRPPRLPRPRPRPCRRPRP
  shrunken log2 fold change: 0.112

## RRIRFRPPRLPRPRPRPQSTPRP
  shrunken log2 fold change: -0.249

## RRIRHRPPRLPRPRPRPIWVPRP
  shrunken log2 fold change: 0.0163

## RRIRERPPRLPRPRPRPNKSPRP
  shrunken log2 fold change: -0.369

## RRIRMRPPRLPRPRPRPNFGPRP
  shrunken log2 fold change: 0.0832

## RRIRARPPRLPRPRPRPRDIPRP
  shrunken log2 fold change: 0.0507

## RRIRHRPPRLPRPRPRPGMSPRP
  shrunken log2 fold change: -0.0653

## RRIRKRPPRLPRPRPRPLDIPRP
  shrunken log2 fold change: -0.0215

## RRIRWRPPRLPRPRPRPSKRPRP
  shrunken log2 fold change: 0.149

## RRIRTRPPRLPRPRPRPQNEPRP
  shrunken log2 fold change: -0.276

## RRIRTRPPRLPRPRPRPASHPRP
  shrunken log2 fold change: -0.42

## RRIRERPPRLPRPRPRPGFHPRP
  shrunken log2 fold change: -0.277

## RRIRARPPRLPRPRPRPQAWPRP
  shrunken log2 fold change: 0.376

## RRIRKRPPRLPRPRPRPAVWPRP
  shrunken log2 fold change: 0.563

## RRIRGRPPRLPRPRPRPAPVPRP
  shrunken log2 fold change: 0.925

## RRIRHRPPRLPRPRPRPGPKPRP
  shrunken log2 fold change: -0.0906

## RRIRQRPPRLPRPRPRPRVKPRP
  shrunken log2 fold change: 0.103

## RRIRWRPPRLPRPRPRPTEDPRP
  shrunken log2 fold change: 0.0661

## RRIRHRPPRLPRPRPRPEPTPRP
  shrunken log2 fold change: 0.179

## RRIRKRPPRLPRPRPRPAINPRP
  shrunken log2 fold change: 0.126

## RRIRGRPPRLPRPRPRPNCCPRP
  shrunken log2 fold change: 0.245

## RRIRHRPPRLPRPRPRPWYCPRP
  shrunken log2 fold change: -0.0324

## RRIRNRPPRLPRPRPRPYHYPRP
  shrunken log2 fold change: -0.722

## RRIRKRPPRLPRPRPRPLEQPRP
  shrunken log2 fold change: 0.0352

## RRIRRRPPRLPRPRPRPHRPPRP
  shrunken log2 fold change: 0.203

## RRIRERPPRLPRPRPRPYWEPRP
  shrunken log2 fold change: -0.219

## RRIRQRPPRLPRPRPRPREPPRP
  shrunken log2 fold change: 0.0406

## RRIRDRPPRLPRPRPRPSEHPRP
  shrunken log2 fold change: 0.12

## RRIRMRPPRLPRPRPRPTMTPRP
  shrunken log2 fold change: 2.3

## RRIRFRPPRLPRPRPRPVWKPRP
  shrunken log2 fold change: -0.0844

## RRIRNRPPRLPRPRPRPKLHPRP
  shrunken log2 fold change: -0.0882

## RRIRERPPRLPRPRPRPPWPPRP
  shrunken log2 fold change: 0.408

## RRIRRRPPRLPRPRPRPFPLPRP
  shrunken log2 fold change: 0.49

## RRIRYRPPRLPRPRPRPVYSPRP
  shrunken log2 fold change: 4.05

## RRIRSRPPRLPRPRPRPSGTPRP
  shrunken log2 fold change: -0.494

## RRIRIRPPRLPRPRPRPLHCPRP
  shrunken log2 fold change: -1.13

## RRIRNRPPRLPRPRPRPIWCPRP
  shrunken log2 fold change: -0.0833

## RRIRQRPPRLPRPRPRPGIRPRP
  shrunken log2 fold change: 0.346

## RRIRVRPPRLPRPRPRPAIVPRP
  shrunken log2 fold change: -0.149

## RRIRIRPPRLPRPRPRPLPKPRP
  shrunken log2 fold change: 0.263

## RRIRSRPPRLPRPRPRPTLMPRP
  shrunken log2 fold change: 0.091

## RRIRPRPPRLPRPRPRPCTVPRP
  shrunken log2 fold change: 0.0392

## RRIRHRPPRLPRPRPRPCEHPRP
  shrunken log2 fold change: -0.00546

## RRIRDRPPRLPRPRPRPGFEPRP
  shrunken log2 fold change: 0.175

## RRIRARPPRLPRPRPRPTFIPRP
  shrunken log2 fold change: -0.18

## RRIRIRPPRLPRPRPRPKRIPRP
  shrunken log2 fold change: 0.0468

## RRIRQRPPRLPRPRPRPNDYPRP
  shrunken log2 fold change: -0.179

## RRIRTRPPRLPRPRPRPSTMPRP
  shrunken log2 fold change: -0.669

## RRIRHRPPRLPRPRPRPPEVPRP
  shrunken log2 fold change: 0.0634

## RRIRPRPPRLPRPRPRPPSYPRP
  shrunken log2 fold change: -0.147

## RRIRTRPPRLPRPRPRPNLEPRP
  shrunken log2 fold change: -0.0562

## RRIRQRPPRLPRPRPRPYSPPRP
  shrunken log2 fold change: -0.13

## RRIRMRPPRLPRPRPRPNQHPRP
  shrunken log2 fold change: -0.0206

## RRIRDRPPRLPRPRPRPKHHPRP
  shrunken log2 fold change: -0.272

## RRIRERPPRLPRPRPRPFAKPRP
  shrunken log2 fold change: -0.386

## RRIRGRPPRLPRPRPRPTFEPRP
  shrunken log2 fold change: 0.923

## RRIRYRPPRLPRPRPRPDAKPRP
  shrunken log2 fold change: -0.118

## RRIRARPPRLPRPRPRPWRPPRP
  shrunken log2 fold change: 0.348

## RRIRDRPPRLPRPRPRPNFTPRP
  shrunken log2 fold change: -0.0368

## RRIRGRPPRLPRPRPRPSKRPRP
  shrunken log2 fold change: 0.231

## RRIRCRPPRLPRPRPRPMLMPRP
  shrunken log2 fold change: 0.0436

## RRIRLRPPRLPRPRPRPKILPRP
  shrunken log2 fold change: -0.143
